B1: Beta-1,3-galactosyl-O-glycosyl-glycoprotein beta-1,6-N-acetylglucosaminyltransferase (Homo sapiens), Q02742 (parent)
chain: MLRTLLRRRLFSYPTKYYFMVLVLSLITFSVLRIHQKPEFVSVRHLELAGENPSSDINCTKVLQGDVNEIQKVKLEILTVKFKKRPRWTPDDYINMTSDCSSFIKRRKYIVEPLSKEEAEFPIAYSIVVHHKIEMLDRLLRAIYMPQNFYCIHVDTKSEDSYLAAVMGIASCFSNVFVASRLESVVYASWSRVQADLNCMKDLYAMSANWKYLINLCGMDFPIKTNLEIVRKLKLLMGENNLETERMPSHKEERWKKRYEVVNGKLTNTGTVKMLPPLETPLFSGSAYFVVSREYVGYVLQNEKIQKLMEWAQDTYSPDEYLWATIQRIPEVPGSLPASHKYDLSDMQAVARFVKWQYFEGDVSKGAPYPPCDGVHVRSVCIFGAGDLNWMLRKHHLFANKFDVDVDLFAIQCLDEHLRHKALETLKH

The variants in the first experiment derive from B1. As to conditions: with golp3_human GOLPH3, Q9H4A6.
Sequence of golp3_human GOLPH3, Q9H4A6 (Q9H4A6 whole entry): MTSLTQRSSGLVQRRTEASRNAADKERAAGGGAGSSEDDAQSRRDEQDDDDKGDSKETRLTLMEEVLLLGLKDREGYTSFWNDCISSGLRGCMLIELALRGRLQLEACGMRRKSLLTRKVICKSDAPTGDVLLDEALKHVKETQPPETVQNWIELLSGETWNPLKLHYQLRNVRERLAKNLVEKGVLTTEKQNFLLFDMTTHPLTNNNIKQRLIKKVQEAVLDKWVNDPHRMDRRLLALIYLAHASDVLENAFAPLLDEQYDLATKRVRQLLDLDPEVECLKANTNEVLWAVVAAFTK
For the variant R7A;R8A;R9A, the “effect of a mutation on the interaction” value is “disrupting interaction strength”.

Variants of B1 are the subject of the next experiment. As to conditions: with golp3_human GOLPH3, Q9H4A6. The source holds these as a separate data set.
As to L5A;L6A, the “effect of a mutation on the interaction” value is listed as “disrupting interaction strength”.

Values taken from IntAct's records for PubMed 23027862.
